pKd: −log10 of the molar value.
Assays:
[1] = target: PTPσ-Fc fusion protein (recombinant mouse PTPσ extracellular domain, short isoform, fused to Fc) (mouse) (UniProt B0V2N1); assay: cell-free plate assay: PTPσ-Fc on protein A plates, increasing Ncn-AP, bound AP activity, Scatchard analysis
[2] = target: PTPσ-Fc fusion protein (recombinant mouse PTPσ extracellular domain, short isoform, fused to Fc) (mouse) (UniProt B0V2N1); assay: cell-free plate assay: PTPσ-Fc on protein A plates, biotinylated aggrecan detected with streptavidin-AP, hyperbolic curve fit

## Ncn-AP fusion protein (mouse neurocan amino acids 1-963 fused to placental alkaline phosphatase) (from UniProt P55066 23-963; P05187 23-511)
[1]
  pKd: 7.96

## biotinylated purified aggrecan (bovine; Sigma) (from UniProt P13608 17-2364)
[2]
  pKd: 7.72
